# Experimental data reported in PMC10182041, “A first-in-class inhibitor of Hsp110 molecular chaperones of pathogenic fungi” (Nature Communications, 2023).
# B1: Ssa1, the major cytosolic Hsp70 of S. cerevisiae (natural protein)
# chain: not shown
# notes: Ssa1, Hsp70 from Saccharomyces cerevisiae; source: Pichia pastoris GS115, purified (HiTrap Q, butyl-Sepharose, ATP agarose)
# Molecular target: T1, Msi3, the sole Hsp110 of Candida albicans (Candida albicans, UniProt Q96VB9 1-701)
# T1 construct: Msi3 (Hsp110) of Candida albicans; ORF amplified from genomic DNA and cloned into the pSMT3 vector; source: E. coli Rosetta2(DE3)pLysS, purified (HisTrap, Ulp1 cleavage, second HisTrap, HiTrap Q); not shown: His6, N-terminal, cleaved; Smt3, N-terminal, cleaved
# T1 sequence (looked up): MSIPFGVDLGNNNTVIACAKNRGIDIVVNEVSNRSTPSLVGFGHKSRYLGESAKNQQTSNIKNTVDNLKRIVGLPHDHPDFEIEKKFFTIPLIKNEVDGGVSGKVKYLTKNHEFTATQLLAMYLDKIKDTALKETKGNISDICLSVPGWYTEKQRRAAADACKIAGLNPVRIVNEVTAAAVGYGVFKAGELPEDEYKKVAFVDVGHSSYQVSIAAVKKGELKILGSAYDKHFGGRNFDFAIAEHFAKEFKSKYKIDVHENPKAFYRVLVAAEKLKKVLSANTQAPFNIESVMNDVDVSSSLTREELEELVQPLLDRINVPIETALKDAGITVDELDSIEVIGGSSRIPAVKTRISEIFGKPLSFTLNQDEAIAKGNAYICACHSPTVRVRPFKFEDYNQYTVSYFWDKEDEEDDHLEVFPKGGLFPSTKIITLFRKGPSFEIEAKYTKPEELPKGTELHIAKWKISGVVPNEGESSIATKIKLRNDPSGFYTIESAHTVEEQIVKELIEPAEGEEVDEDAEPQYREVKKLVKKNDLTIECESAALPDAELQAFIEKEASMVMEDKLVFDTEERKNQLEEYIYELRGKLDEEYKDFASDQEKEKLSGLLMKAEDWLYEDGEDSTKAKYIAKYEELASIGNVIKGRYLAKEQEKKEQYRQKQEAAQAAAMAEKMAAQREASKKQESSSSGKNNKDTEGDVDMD
# Assay: native gel or EMSA; Msi3 (5 uM) and Ssa1 (10 uM) mixed with 2 mM ATP in buffer D (25 mM Hepes-KOH pH 7.5, 50 mM KCl, 10 mM Mg(OAc)2, 1 mM DTT), 45 min on ice; 10% native gel, Coomassie; with or without 100 uM 2H
# Conditions: both partners purified
binder,measurement,value
B1,binding result,binds
